Data: paper PMC10703047

target: DosR (DevR) (Mycobacterium tuberculosis H37Rv) (UniProt P9WMF9); assay: EMSA
Sequence (P9WMF9 whole entry): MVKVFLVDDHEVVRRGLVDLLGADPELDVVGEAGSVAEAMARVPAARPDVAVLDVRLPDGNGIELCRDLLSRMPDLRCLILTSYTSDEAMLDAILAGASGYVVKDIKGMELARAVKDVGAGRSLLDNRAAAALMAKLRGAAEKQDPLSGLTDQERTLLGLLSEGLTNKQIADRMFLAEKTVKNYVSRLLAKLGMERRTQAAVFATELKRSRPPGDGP

Sequence | binding
AGCGGGATCGCATCACGCATTGGGTACCTCCGATGCTGGCGGATAAAGCCTTTCGTGCCGGCGGATGATCCGAGGTCGCTAGCTGGCGAGGGCCATGGGCGAGCA (double strand) [rv2625 promoter] | no binding
TAAGTGGACACGAACCGTAAGTTTAGACTTACGGATATTCTTCCGCAAGGGTGCGCGGGTGGTGTGACACGTGATCCGGGCATCCCGTCACCCATGGCGTTGGAGCCGAGTATCGGTTGGCGACGTTGGCCCGCCGGAAAGTCGACTGGTACAAGCATTTTCCGAGAACCCATGCGGCGCGTCGCGGCGATGACCGGCAGAGAGGCTCCCTAGTATTGCGGCGTGCTGGATCGCTATGGAACCGA (double strand) [rv1955 promoter] | binds
AGCGGTTCGGACTCCACCGCGTCTCCTGAGAGCTTCAGCGTTACATCGGTTGACGAGTTGAAGAATTTATCAGATAGTGCGGATGCGTGCGGGCCGCCCGCGGCCAATCGGCTACGGCGTACGCGAGTCAGC (double strand) [rv0081 promoter] | no binding
TGGTATCTGACACTGCTACGTTCCTTTCCGCTTGTTGGTCCACGTCCTTGCACGAGCCAACCGGACCATGGTCCGATTTATTCCGATCGCGTTACAGTGCAAAGGTGAGCGGCGCCGAGC (double strand) [rv3054 promoter] | binds
